In publication PMC9489553, “Biochemical and clinical studies of putative allergens to assess what distinguishes them from other non-allergenic proteins in the same family” (Transgenic Research, 2022):

Assays:
[1] = molecular target: the molecule itself; assay: crystal structure; ChALDH apoenzyme, hanging drop at 4 °C, 20% PEG-100, 100 mM sodium/potassium phosphate pH 6.2, 200 mM NaCl; 3.18 Å
[2] = molecular target: the molecule itself; assay: crystal structure; ChMDH with 5 mM NADP+, hanging drop at 4 °C, 25% PEG-1500, sodium propionate/sodium cacodylate/BIS-TRIS propane pH 7.0; 2.04 Å

Row | Protein | stoichiometry N [1] | stoichiometry N [2]
1 | Cladosporium herbarum (aka Davidiella tassiana) aldehyde dehydrogenase (enzyme, aldehyde dehydrogenase of Cladosporium herbarum (aka Davidiella tassiana), GenBank CAA55072.2; codon-optimised synthetic gene in pET-28a; Apoenzyme in the crystal; also called ChALDH; C. herbarum ALDH; source: E. coli BL21 (DE3), purified (Ni-NTA, size-exclusion chromatography); not shown: His-tag, N-terminal, cleaved) MTSVQLETPHSGKYEQPTGLFINNEFVKGQEGKTFDVINPSDESVITQVHEATEKDVDIAVAAARKAFEGSWRQETPENRGKLLNNLANLFEKNIDLLAAVESLDNGKAISMAKGDISMCVGCLRYYGGWADKITGKVIDTTPDTFNYVKKEPIGVCGQIIPWNFPLLMWAWKIGPAIACGNTVVLKTAEQTPLGGLVAASLVKEAGFPPGVINVISGFGKVAGAALSSHMDVDKVAFTGSTVVGRTILKAAASSNLKKVTLELGGKSPNIVFEDADIDNAISWVNFGIFFNHGQCCCAGSRVYVQESIYDKFVQKFKERAQKNVVGDPFAADTFQGPQVSKVQFDRIMEYIQAGKDAGATVETGGKRKGDKGYFIEPTIFSNVTEDMKIVKEEIFGPVCSIAKFKTKEDAIKLGNASTYGLAAAVHTKNLNTAIEVSNALKAGTVWVNTYNTLHHQMPFGGYKESGIGRELGEDALANYTQTKTVSIRLGDALFG | 4 | 
2 | Cladosporium herbarum mannitol dehydrogenase (enzyme, codon-optimised synthetic gene in pET-28a; Crystallised in complex with NADP+; also called ChMDH; C. herbarum MDH; source: E. coli BL21 (DE3), purified (Ni-NTA, size-exclusion chromatography); not shown: His-tag, N-terminal, cleaved) MPGQQATKHESLLDQLSLKGKVVVVTGASGPKGMGIEAARGCAEMGAAVAITYASRAQGAEENVKELEKTYGIKAKAYKCQVDSYESCEKLVKDVVADFGQIDAFIANAGATADSGILDGSVEAWNHVVQVDLNGTFHCAKAVGHHFKERGTGSLVITASMSGHIANFPQEQTSYNVAKAGCIHMARSLANEWRDFARVNSISPGYIDTGLSDFVPKETQQLWHSMIPMGRDGLAKELKGAYVYFASDASTYTTGADLLIDGGYTTR |  | 4
